# Source: publication PMC11950179 (Nature Communications, 2025)
# B1: human muscle phosphorylase kinase γ subunit (PHKG1) (enzyme)
# chain: not shown
# B2: human phosphorylase kinase β subunit (PHKB), dephosphorylated (natural protein, UniProt Q93100 1-1093, looked up)
# chain: MAGAAGLTAEVSWKVLERRARTKRSGSVYEPLKSINLPRPDNETLWDKLDHYYRIVKSTLLLYQSPTTGLFPTKTCGGDQKAKIQDSLYCAAGAWALALAYRRIDDDKGRTHELEHSAIKCMRGILYCYMRQADKVQQFKQDPRPTTCLHSVFNVHTGDELLSYEEYGHLQINAVSLYLLYLVEMISSGLQIIYNTDEVSFIQNLVFCVERVYRVPDFGVWERGSKYNNGSTELHSSSVGLAKAALEAINGFNLFGNQGCSWSVIFVDLDAHNRNRQTLCSLLPRESRSHNTDAALLPCISYPAFALDDEVLFSQTLDKVVRKLKGKYGFKRFLRDGYRTSLEDPNRCYYKPAEIKLFDGIECEFPIFFLYMMIDGVFRGNPKQVQEYQDLLTPVLHHTTEGYPVVPKYYYVPADFVEYEKNNPGSQKRFPSNCGRDGKLFLWGQALYIIAKLLADELISPKDIDPVQRYVPLKDQRNVSMRFSNQGPLENDLVVHVALIAESQRLQVFLNTYGIQTQTPQQVEPIQIWPQQELVKAYLQLGINEKLGLSGRPDRPIGCLGTSKIYRILGKTVVCYPIIFDLSDFYMSQDVFLLIDDIKNALQFIKQYWKMHGRPLFLVLIREDNIRGSRFNPILDMLAALKKGIIGGVKVHVDRLQTLISGAVVEQLDFLRISDTEELPEFKSFEELEPPKHSKVKRQSSTPSAPELGQQPDVNISEWKDKPTHEILQKLNDCSCLASQAILLGILLKREGPNFITKEGTVSDHIERVYRRAGSQKLWLAVRYGAAFTQKFSSSIAPHITTFLVHGKQVTLGAFGHEEEVISNPLSPRVIQNIIYYKCNTHDEREAVIQQELVIHIGWIISNNPELFSGMLKIRIGWIIHAMEYELQIRGGDKPALDLYQLSPSEVKQLLLDILQPQQNGRCWLNRRQIDGSLNRTPTGFYDRVWQILERTPNGIIVAGKHLPQQPTLSDMTMYEMNFSLLVEDTLGNIDQPQYRQIVVELLMVVSIVLERNPELEFQDKVDLDRLVKEAFNEFQKDQSRLKEIEKQDDMTSFYNTPPLGKRGTCSYLTKAVMNLLLEGEVKPNNDDPCLIS
# B3: human muscle glycogen phosphorylase (PYGM) (enzyme, UniProt P11217 1-842, looked up)
# chain: MSRPLSDQEKRKQISVRGLAGVENVTELKKNFNRHLHFTLVKDRNVATPRDYYFALAHTVRDHLVGRWIRTQQHYYEKDPKRIYYLSLEFYMGRTLQNTMVNLALENACDEATYQLGLDMEELEEIEEDAGLGNGGLGRLAACFLDSMATLGLAAYGYGIRYEFGIFNQKISGGWQMEEADDWLRYGNPWEKARPEFTLPVHFYGHVEHTSQGAKWVDTQVVLAMPYDTPVPGYRNNVVNTMRLWSAKAPNDFNLKDFNVGGYIQAVLDRNLAENISRVLYPNDNFFEGKELRLKQEYFVVAATLQDIIRRFKSSKFGCRDPVRTNFDAFPDKVAIQLNDTHPSLAIPELMRILVDLERMDWDKAWDVTVRTCAYTNHTVLPEALERWPVHLLETLLPRHLQIIYEINQRFLNRVAAAFPGDVDRLRRMSLVEEGAVKRINMAHLCIAGSHAVNGVARIHSEILKKTIFKDFYELEPHKFQNKTNGITPRRWLVLCNPGLAEVIAERIGEDFISDLDQLRKLLSFVDDEAFIRDVAKVKQENKLKFAAYLEREYKVHINPNSLFDIQVKRIHEYKRQLLNCLHVITLYNRIKREPNKFFVPRTVMIGGKAAPGYHMAKMIIRLVTAIGDVVNHDPAVGDRLRVIFLENYRVSLAEKVIPAADLSEQISTAGTEASGTGNMKFMLNGALTIGTMDGANVEMAEEAGEENFFIFGMRVEDVDKLDQRGYNAQEYYDRIPELRQVIEQLSSGFFSPKQPDLFKDIVNMLMHHDRFKVFADYEDYIKCQEKVSALYKNPREWTRMVIRNIATSGKFSSDRTIAQYAREIWGVEPSRQRLPAPDEAI
# Tests used:
# [1] = target: human calmodulin, δ subunit of phosphorylase kinase (human, UniProt P0DP25 1-149); experiment: cryo-EM structure
# [2] = target: B3; experiment: cross-linking
# cryo-EM structure = target: the molecule itself; experiment: cryo-EM structure
# [3] = target: T1, human muscle phosphorylase kinase α subunit (PHKA1), dephosphorylated (human, UniProt P46020 1-1223); experiment: cross-linking
# T1 sequence (looked up): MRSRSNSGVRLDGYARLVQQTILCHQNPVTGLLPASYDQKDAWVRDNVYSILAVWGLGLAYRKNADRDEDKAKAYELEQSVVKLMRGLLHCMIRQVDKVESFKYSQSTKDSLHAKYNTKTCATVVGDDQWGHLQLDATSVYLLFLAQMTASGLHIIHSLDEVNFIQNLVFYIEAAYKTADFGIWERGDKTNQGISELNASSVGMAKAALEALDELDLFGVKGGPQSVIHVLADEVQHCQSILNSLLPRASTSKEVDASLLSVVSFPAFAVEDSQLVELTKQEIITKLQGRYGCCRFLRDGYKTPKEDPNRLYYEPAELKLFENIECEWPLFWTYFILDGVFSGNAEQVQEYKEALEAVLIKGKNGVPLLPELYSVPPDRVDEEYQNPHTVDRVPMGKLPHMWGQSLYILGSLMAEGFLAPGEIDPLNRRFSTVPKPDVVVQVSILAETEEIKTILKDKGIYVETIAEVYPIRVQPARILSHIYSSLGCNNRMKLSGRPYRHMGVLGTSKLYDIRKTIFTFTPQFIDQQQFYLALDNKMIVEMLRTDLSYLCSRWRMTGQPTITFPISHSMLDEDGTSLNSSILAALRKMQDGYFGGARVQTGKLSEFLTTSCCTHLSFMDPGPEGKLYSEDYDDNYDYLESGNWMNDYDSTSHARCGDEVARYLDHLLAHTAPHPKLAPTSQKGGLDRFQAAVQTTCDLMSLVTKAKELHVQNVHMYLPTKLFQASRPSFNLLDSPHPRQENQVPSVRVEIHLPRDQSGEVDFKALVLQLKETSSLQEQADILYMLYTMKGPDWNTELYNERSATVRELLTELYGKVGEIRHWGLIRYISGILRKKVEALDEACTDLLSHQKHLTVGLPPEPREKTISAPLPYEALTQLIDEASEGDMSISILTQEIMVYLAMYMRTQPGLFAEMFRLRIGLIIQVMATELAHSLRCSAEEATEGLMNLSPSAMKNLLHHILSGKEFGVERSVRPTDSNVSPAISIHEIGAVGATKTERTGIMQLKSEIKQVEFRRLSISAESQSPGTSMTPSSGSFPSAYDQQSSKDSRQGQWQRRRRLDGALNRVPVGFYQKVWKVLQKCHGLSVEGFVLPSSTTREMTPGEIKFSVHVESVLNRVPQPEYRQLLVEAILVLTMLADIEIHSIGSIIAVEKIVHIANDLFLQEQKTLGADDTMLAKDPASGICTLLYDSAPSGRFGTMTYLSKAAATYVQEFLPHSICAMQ
# [4] = target: B2; experiment: cross-linking
binder,measurement,setting,value
B1,binding result,[1],binds
same,binding result,[2],binds
B2,stoichiometry N,cryo-EM structure,4
B3,binding result,[3],binds
same,binding result,[4],binds
